Experimental data from patent US20080044436A1, “Method for Screening and Compositions for Treating Cancers” (priority 2004, published 2008).

Target: T1, Sp1 (Homo sapiens, UniProt P08047)
T1 construct: made in house
Experiment: GST pull-down, TReP-132 and Sp1
Type: binding
Details: GST pull-down with 35S-Sp1, vs GST alone
Method: FIG. 13D: GST-TReP-132 proteins were incubated with ^35-[S]-Sp1 and immobilized on a glutathione-Sepharose column. Specific interactions were analyzed by comparison with the results obtained by incubating GST alone with ^35-[S]-Sp1. Sp1 input: 1/10th of radiolabelled Sp1 level used in the incubations.
In order to evaluate the interaction of TReP-132, Sp1, ER and PR, the wt and mutant GST-TReP-132 fusion proteins were expressed, then immobilized on glutathione-Sepharose as described (Frangioni and Neel, 1993; Monte et al., 1998). The ^35S-[Sp1], ^35S-[ER] and ^35S-[PR-B] proteins were synthesized in vitro using a rabbit reticulocyte lysate and T7 RNA polymerase system as directed by the manufacturer (Promega Corporation, Madison, Wis.). Proteins which bound, then detached from the Sepharose after being heated to boiling in SDS buffer were then separated on a 10% SDS-PAGE gel. The gels were stained with Coomassie blue, dried and autoradiographed.

T1 sequence (P08047 whole entry): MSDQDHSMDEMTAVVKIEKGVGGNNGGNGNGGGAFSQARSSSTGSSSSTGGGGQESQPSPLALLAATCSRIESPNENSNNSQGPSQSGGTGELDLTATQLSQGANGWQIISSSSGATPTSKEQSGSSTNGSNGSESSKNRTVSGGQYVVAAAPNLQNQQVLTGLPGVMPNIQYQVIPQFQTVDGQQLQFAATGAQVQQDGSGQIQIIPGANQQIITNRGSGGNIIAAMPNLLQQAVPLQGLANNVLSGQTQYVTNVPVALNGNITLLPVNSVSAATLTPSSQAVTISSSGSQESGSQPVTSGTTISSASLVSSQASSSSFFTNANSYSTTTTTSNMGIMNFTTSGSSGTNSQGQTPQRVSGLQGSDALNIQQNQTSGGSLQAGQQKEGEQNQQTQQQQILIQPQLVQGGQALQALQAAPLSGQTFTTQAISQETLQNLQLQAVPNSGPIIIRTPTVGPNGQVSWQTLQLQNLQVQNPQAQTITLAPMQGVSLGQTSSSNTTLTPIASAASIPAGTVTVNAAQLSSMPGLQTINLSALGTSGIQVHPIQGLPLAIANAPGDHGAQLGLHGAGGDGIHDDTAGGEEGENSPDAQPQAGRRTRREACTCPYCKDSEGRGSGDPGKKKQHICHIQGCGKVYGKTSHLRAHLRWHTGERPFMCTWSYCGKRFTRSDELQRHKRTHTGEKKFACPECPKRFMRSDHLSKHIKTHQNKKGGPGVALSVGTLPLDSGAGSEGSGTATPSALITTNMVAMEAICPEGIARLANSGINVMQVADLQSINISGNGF

B1: GST-TReP-132: in-frame fusion of the TReP-132 coding region downstream of GST in pGEX-2TK (protein)
chain: MGDQQLYKTNHVAHGSENLFYQQPPLGVHSGLNHNYGNAVTGGGMDAPQASPISPHFPQDTRDGLGLPVGSKNLGQMDTSRQGGWGSHAGPGNHVQLRGNLANSNMMWGAPAQAEPTDGYQYTYSQASEIRTQKLTSGVLHKLDSFTQVFANQNLRIQVNNMAQVLHTQSAVMDGAPDSALRQLLSQKPMEPPAPAIPSRYQQVPQQPHPGFTGGLSKPALQVGQHPTQGHLYYDYQQPLAQVPVQGGQPLQAPQMLSQHMQQMQQHQYYPPQQQQQAGQQRISMQEIQTQPQQIRPSQPQPPPQQQQPQQLQLQQRQGSMQIPQYYQPQPMMQHLQEQQQQQMHLQPPSYHRDPHQYTPEQAHTVQLIPLGSMSQYYYQEPQQPYSHPLYQQSHLSQHQQREDSQLKTYSSDRQAQAMLSSHGDLGPPDTGMGDPASSDLTRVSSTLPHRPLLSPSGIHLNNMGPQHQQLSPSAMWPQMHLPDGRAQPGSPESSGQPKGAFGEQFDAKNKLTCSICLKEFKNLPALNGHMRSHGGMRASPNLKQEEGEKVLPPQPQPPLPPPPPPPPPPQLPPEAESLTPMVMPVSVPVKLLPPKPSSQGFTNSTVAAPSARDKPASSMSDDEMPVLEIPRKHQPSVPKAEEPLKTVQEKKKFRHRPEPLFIPPPPSYNPNPAASYSGATLYQSQLRSPRVLGDHLLLDPTHELPPYTPPPMLSPVRQGSGLFSNVLISGHGPGAHPQLPLTPLTPTPRVLLCRSNSIDGSNVTVTPGPGEQTVDVEPRINIGLRFQAEIPELQDISALAQDTHKATLVWKPWPELENHDLQQRVENLLNLCCSSALPGGGTNSEFALHSLFEAKGDVMVALEMLLLRKPVRLKCHPLANYHYAGSDKWTSLERKLFNKALATYSKDFIFVQKMVKSKTVAQCVEYYYTWKKIMRLGRKHRTRLAEIIDDCVTSEEEEELEEEEEEDPEEDRKSTKEEESEVPKSPEPPPVPVLAPTEGPPLQALGQPSGSFICEMPNCGAVFSSRQALNGHARIHGGTNQVTKARGAIPSGKQKPGGTQSGYCSVKSSPSHSTTSGETDPTTIFPCKECGKVFFKIKSRNAHMKTHRQQEEQQRQKAQKAAFAAEMAATIERTTGPVGAPGLLPLDQLSLIKPIKDVDILDDDVVQQLGGVMEEAEVVDTDLLLDDQDSVLLQGDAEL
modifications: left off: a dimerising Fc or GST; large carriers; small tags and cut ends
notes: in-frame fusion of the TReP-132 coding region downstream of GST in pGEX-2TK
interaction with Sp1: protein/protein itneraction was observed
